The text below walks through data of article PMC6817700.

The data set concerns the target T1, T-box 5 (TBX5) (Homo sapiens, UniProt Q99593 1-518).
T1 sequence: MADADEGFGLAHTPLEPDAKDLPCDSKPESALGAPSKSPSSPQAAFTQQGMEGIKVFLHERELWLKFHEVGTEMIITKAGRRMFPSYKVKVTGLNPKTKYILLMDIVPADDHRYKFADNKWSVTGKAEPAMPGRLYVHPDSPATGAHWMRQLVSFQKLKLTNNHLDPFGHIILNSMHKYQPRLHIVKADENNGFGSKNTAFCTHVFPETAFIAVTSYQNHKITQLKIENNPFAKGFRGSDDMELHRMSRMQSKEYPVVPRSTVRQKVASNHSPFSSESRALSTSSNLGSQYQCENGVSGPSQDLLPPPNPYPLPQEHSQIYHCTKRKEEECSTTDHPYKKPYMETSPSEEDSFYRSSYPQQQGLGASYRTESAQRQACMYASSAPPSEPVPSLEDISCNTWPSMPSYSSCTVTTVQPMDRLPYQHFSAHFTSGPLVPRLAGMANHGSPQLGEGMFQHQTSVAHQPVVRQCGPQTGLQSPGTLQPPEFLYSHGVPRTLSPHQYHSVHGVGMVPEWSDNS
Put plainly: EMSA.

B1: CAGA (rs116461237 G>A) (dsDNA)
DNA 1: GCCCACCTCGGCCTCCCAAAGTTCTAGGATTACAGATGTGAGCTACC
DNA 2: GGTAGCTCACATCTGTAATCCTAGAACTTTGGGAGGCCGAGGTGGGGC
In the case of B1, the binding result is on record as “no binding”.
